We go through one molecule from PMC3366790 (The Journal of Biological Chemistry, 2012).

Bounds are passed on as bounds.

The experiment deals with T1, full-length CDC34 with C191S/C223S substitutions (human, UniProt P49427 1-236, C191S | C223S).
T1 sequence: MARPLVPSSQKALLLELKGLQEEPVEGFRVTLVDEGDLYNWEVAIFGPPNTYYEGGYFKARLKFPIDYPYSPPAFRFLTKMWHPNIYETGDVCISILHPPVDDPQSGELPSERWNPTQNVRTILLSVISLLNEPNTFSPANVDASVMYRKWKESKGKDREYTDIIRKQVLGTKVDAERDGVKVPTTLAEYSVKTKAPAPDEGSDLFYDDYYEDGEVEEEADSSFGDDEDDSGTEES
Put plainly: NMR titration.

B1: sRbx1^12–108 (solubilized human Rbx1/ROC1 residues 12–108 with W27S, V30S, L32Q, W33S) (domain or fragment)
chain: not shown
Broadly, the Kd is the equilibrium constant for the complex coming apart. High values mean a looser complex, low ones a tighter complex. As for B1, the dissociation constant Kd is more than 1000 µM.
